{
  "source": "patent US5134121A",
  "about": "“Nerve growth factor peptides” (Regents of the University of California, priority 1991, dated 1992)",
  "key": {"[1]": {"assay": "Resistance to proteolysis during cell culture", "format": "in vitro ADME", "details": "2.0 μmole/ml in culture medium with cells and 100 pg/ml NGF, 24 hr, HPLC", "protocol": "The resistance of peptide C5 to proteolytic cleavage during cell culture was assessed. Quadruplicate wells were prepared each containing 2.0 μmole/ml of peptide in culture medium, 100 pg/ml NGF and cells as described above. After 24 hr in culture, 320 ul (4 wells×80 ul) of culture medium were collected. Fresh culture medium containing 2.0 μmole/ml of peptide was also prepared. Both samples of peptide-containing medium were filtered through a Centricon membrane (Amicon, Bedford) with a molecular weight cutoff of 10,000. 250 μl of filtrate was loaded onto a C18 uBondapak analytic HPLC column and run under the same conditions described above for peptide purification. The quantity of peptides in fresh compared to post-culture medium was determined by integration of their absorbance peaks. After 24 hr in culture, more than 80-85% of the initial quantity of peptide C5 was recovered.."}, "[2]": {"test_system": "embryologic day 10 dorsal root ganglia neurons", "assay": "Nonspecific toxicity: NGF-independent neurite outgrowth in response to CNTF", "format": "cell-based, chick", "details": "up to 2.6 μmoles/ml, FIG. 3", "protocol": "Potential nonspecific toxicity of peptide C5 (KGKE) was investigated with embryologic day 10 dorsal root ganglia neurons which also extend neurites in the presence of ciliary neurotrophic factor (CNTF) The effect of peptide C5 on NGF-independent neurite outgrowth was assessed."}, "PrP mRNA": {"test_system": "PrP mRNA", "details": "hamster, in vivo"}, "ChAT activity": {"test_system": "ChAT activity", "assay": "ChAT activity in brain regions after intraventricular NGF in neonatal hamsters", "format": "in vivo, hamster", "details": "for increase in septal ChAT activity relative to vehicle-injected animals: single 30 μg injection PD 7, sacrifice PD 9", "protocol": "The birth of hamster litters was recorded as day zero. Hamsters were sacrificed at various postnatal ages and several brain regions were quickly dissected. The regions sampled included septum (basal forebrain), caudate-putamen, thalamus, hippocampus, frontolateral neocortex, and brainstem. Dissections were performed as described (Johnston et al, (1987) Neurochem Res 12:985-994). Subiculum was included with hippocampus. Caudal midbrain plus pons constituted the brainstem. For prenatal determinations,a timed-pregnancy animal was anesthetized with Nembutal (15 mg, i.p.) and individual embryos were removed and dissected. Whole forebrain was taken in place of frontolateral neocortex in prenatal animals. ChAT activity was determined in selected tissues as described (Mobley et al, (1985) Science 229:284-287).\nNGF was prepared by ion-exchange chromatography and characterized as described in the first example. In experiments in which multiple injections were given, NGF (30 μg) was administered intraventricularly (Mobley et al, (1985) supra) on postnatal day (PD) 3, 5 and 7 and sacrifice was on PD 9. Vehicle-injected animals served as controls. In experiments in which a single injection was given, NGF (30 μg) was administered intraventricularly on PD 7 and animals were sacrificed on PD 9. Controls included animals treated with NGF (30 μg) denatured by reduction and carbamoylmethylation (Morris et al, (1971) Neurobiology 1:64-67), or injection vehicle alone."}, "[3]": {"test_system": "dissociated embryonic chick dorsal root ganglia neurons", "assay": "NGF bioassay: support of neurite outgrowth/neuronal survival without NGF (agonist activity)", "format": "cell-based", "details": "24 hr culture", "source_text": "After synthesis, the peptides of the present invention may then be assayed to determine their activity in the NGF bioassay using dissociated embryonic chick dorsal root ganglia neurons according to published procedures, such as, for example, Riopelle et al, (1981) J Neurobiol 12:175-186 or Varon et al (1981) Dev Brain Res 1:73-87. […] If the peptide of interest is capable of inhibiting neuronal attachment, survival or neurite outgrowth in the presence of NGF, the peptide is defined as an antagonist. Similarly, if the peptide is capable of supporting neuronal attachment, survival or neurite outgrowth in the absence of NGF, it is defined as an agonist.\nNGF bioassays using dissociated embryonic chick dorsal root ganglia neurons have been described (Varon et al, (1981) Dev Brain Res 1:73-87); Riopelle et al, (1981) J Neurobiol 12:175-186). Approximately 30 dorsal root ganglia were dissected from each developmental day 8 chick embryo. […] During this incubation, non-neurons more readily attach to the substratum; therefore, the resulting supernatant contained a relatively enriched neuronal population (80-90% neurons). […]\nThe results obtained were similar in each experiment; FIG. 1A represents the data obtained from the second experiment. […] Neurite outgrowth was assessed by phase contrast microscopy. The number of neurite-bearing cells in a fixed area of the well was counted. […]"}, "β-PP mRNA": {"test_system": "β-PP mRNA", "assay": "β-protein precursor mRNA levels after NGF injection in neonatal hamsters", "format": "in vivo, hamster"}, "PrP": {"test_system": "PrP", "details": "hamster, in vivo"}},
  "note": "Where a SMILES comes first, the peptide text is derived from it.",
  "data": [
    {"molecule": "NCCCC[C@H](NC(=O)CNC(=O)[C@@H](N)CCCCN)C(=O)N[C@@H](CCC(=O)O)C(N)=O", "note": "[C5, KGKE-NH2] (H-KGKE-NH2)", "values": [
      {"measurement": "initial quantity of peptide recovered after culture", "setting": "[1]", "value": "80-85%"},
      {"measurement": "effect on number of neurons bearing neurites in response to CNTF", "setting": "[2]", "value": "no detectable effect"}
    ]},
    {"molecule": "NGF: purified from male mouse submaxillary gland; β-NGF is a dimer of two identical 118 amino acid chains (protein, UniProt P01139 122-241, looked up, beta-NGF, purified from male mouse submaxillary gland; β-NGF is a dimer of two identical 118 amino acid chains) Beta-nerve growth factor: SSTHPVFHMGEFSVCDSVSVWVGDKTTATDIKGKEVTVLAEVNINNSVFRQYFFETKCRASNPVESGCRGIDSKHWNSYCTTTHTFVKALTTDEKQAAWRFIRIDTACVCVLSRKATRRG", "values": [
      {"measurement": "effect on PrP mRNA levels in hippocampus", "setting": "PrP mRNA", "value": "no effect"},
      {"measurement": "effect on PrP mRNA levels in thalamus", "setting": "PrP mRNA", "value": "no effect"},
      {"measurement": "increase in PrP mRNA in caudate-putamen relative to vehicle-injected animals", "setting": "PrP mRNA", "value": 70, "unit": "%"},
      {"measurement": "increase in septal PrP mRNA levels", "setting": "PrP mRNA", "value": "~9", "unit": "fold"},
      {"measurement": "increase in septal PrP mRNA relative to controls", "setting": "PrP mRNA", "value": "approximately 10 fold"},
      {"measurement": "increase in septal ChAT activity", "setting": "ChAT activity; 30 μg intraventricularly PD 3, 5, 7, sacrifice PD 9, FIG. 5A", "value": "increased almost two-fold"},
      {"measurement": "increase in septal ChAT activity relative to vehicle-injected animals", "setting": "ChAT activity", "value": 100, "unit": "%"},
      {"measurement": "septal ChAT activity (mean±SEM)", "setting": "ChAT activity; single 30 μg injection PD 7, sacrifice PD 9, n=4", "value": "44.0±5.0 nmol acetylcholine (ACh) formed/hr/mg protein"},
      {"measurement": "ChAT activity in caudate-putamen", "setting": "ChAT activity; single injection, n=3", "value": "92.4±6.3 nmol acetylcholine (ACh) forme"},
      {"measurement": "increase in ChAT activity in caudate-putamen", "setting": "ChAT activity; single injection, neonatal hamsters", "value": "approximately 65%"},
      {"measurement": "concentration giving maximum neurite outgrowth", "setting": "[3]", "value": "approximately 800 pg/ml"},
      {"measurement": "increase in β-PP mRNA levels relative to vehicle-injected animals", "setting": "β-PP mRNA; single treatment on PD7, septum", "value": 4, "unit": "fold"},
      {"measurement": "increase in β-PP in thalamus", "setting": "β-PP mRNA; single treatment, FIG. 6", "value": "no increase"},
      {"measurement": "increase in PrP in septum (Western blot)", "setting": "PrP", "value": 3.3, "unit": "fold"}
    ]},
    {"molecule": "NGF denatured by reduction and carbamoylmethylation: NGF (30 μg) denatured by reduction and carbamoylmethylation, used as control (protein, UniProt P01139 122-241, looked up, beta-NGF reduced and carbamoylmethylated (denatured), NGF (30 μg) denatured by reduction and carbamoylmethylation, used as control) Beta-nerve growth factor: SSTHPVFHMGEFSVCDSVSVWVGDKTTATDIKGKEVTVLAEVNINNSVFRQYFFETKCRASNPVESGCRGIDSKHWNSYCTTTHTFVKALTTDEKQAAWRFIRIDTACVCVLSRKATRRG", "values": [
      {"measurement": "increase in septal PrP mRNA levels", "setting": "PrP mRNA", "value": "No increase"},
      {"measurement": "increase in septal ChAT activity relative to vehicle-injected animals", "setting": "ChAT activity", "value": "No increase"}
    ]}
  ]
}
